In patent US20150344937A1 one finds Antibody Binding per Cell (ABC) (CD4 antibody per cell) data, which are given here for one substance.

For this assay, the target named is murine CD4 (murine) (UniProt P06332). Description: quantitative flow cytometry on murine splenocytes, BD QuantiBrite PE microspheres as standard. (Flow cytometry measures light scatter and fluorescence of single cells or particles in a stream.)
Sequence of UniProt P06332 (P06332 27-457): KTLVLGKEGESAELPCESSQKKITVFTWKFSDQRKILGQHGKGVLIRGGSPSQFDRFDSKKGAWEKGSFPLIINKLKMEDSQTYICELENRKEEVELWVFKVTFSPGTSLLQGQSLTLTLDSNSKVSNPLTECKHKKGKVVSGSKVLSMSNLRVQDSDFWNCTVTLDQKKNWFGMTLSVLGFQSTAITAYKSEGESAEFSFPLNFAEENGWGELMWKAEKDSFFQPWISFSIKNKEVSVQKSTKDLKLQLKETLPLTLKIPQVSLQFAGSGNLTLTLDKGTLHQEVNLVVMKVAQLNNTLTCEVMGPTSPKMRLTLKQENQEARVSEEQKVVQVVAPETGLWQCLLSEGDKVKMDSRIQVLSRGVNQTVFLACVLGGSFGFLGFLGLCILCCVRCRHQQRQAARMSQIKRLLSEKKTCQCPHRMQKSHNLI

With “Commercially prepared anti-CD4 (clone GK1.5, phycoerythrin conjugate) (antibody)”, the Antibody Binding per Cell (ABC) (CD4 antibody per cell) is 29700.
